# Laboratory results from patent US10253076B2, “Peptides and combination of peptides for use in immunotherapy against ovarian cancer and other cancers” (immatics biotechnologies GmbH, priority 2015, dated 2019).
# Target: HLA-A*02:01 (Homo sapiens, UniProt P04439, D140Y/D185E/D98H/E176V/E277Q/G131W/G231S/I119V/I121R/I166T/I218V/L300P/L318F/N151K/N90K/P208A/P217A/Q86G/Q94H/R138H/R169H/T345S)
# Test: MHC binding assay (UV-ligand exchange, beta2m ELISA, peptide exchange yield)
# Details: binding of HLA-class I restricted peptides to HLA-A*02:01, ranged by peptide exchange yield (UV-ligand exchange, β2m ELISA)
# Description: Candidate peptides for T cell based therapies according to the present invention were further tested for their MHC binding capacity (affinity). The individual peptide-MHC complexes were produced by UV-ligand exchange, where a UV-sensitive peptide is cleaved upon UV-irradiation, and exchanged with the peptide of interest as analyzed. Only peptide candidates that can effectively bind and stabilize the peptide-receptive MHC molecules prevent dissociation of the MHC complexes. To determine the yield of the exchange reaction, an ELISA was performed based on the detection of the light chain (β2m) of stabilized MHC complexes. The assay was performed as generally described in Rodenko et al. (Rodenko et al., 2006).
# 96 well MAXISorp plates (NUNC) were coated over night with 2ug/ml streptavidin in PBS at room temperature, washed 4× and blocked for 1 h at 37° C. in 2% BSA containing blocking buffer. […] Peptide-MHC monomers of the UV-exchange reaction were diluted 100 fold in blocking buffer. Samples were incubated for 1 h at 37° C., washed four times, incubated with 2ug/ml HRP conjugated anti-82m for 1 h at 37° C., washed again and detected with TMB solution that is stopped with […]. Absorption was measured at 450 nm. Candidate peptides that show a high exchange yield (preferably higher than 50%, most preferred higher than 75%) are generally preferred for a generation and production of antibodies or fragments thereof, and/or T cell receptors or fragments thereof, as they show sufficient avidity to the MHC molecules and prevent dissociation of the MHC complexes.
row,Peptide exchange,Substance
1,″++″ (≥20% = ++),251 (ALYTGFSILV; listed as Homo sapiens) [compound 251]
2,″++″ (≥20% = ++),9 (GAAKDLPGV; listed as Homo sapiens) [compound 9]
3,″+++″ (≥50% = +++),618 (VLFDSESIGIYV; listed as Homo sapiens) [compound 618]
4,″++++″ (≥75% = ++++),387 (ALFQATAEV; listed as Homo sapiens) [compound 387]
5,″++++″ (≥75% = ++++),466 (VLIANLEKL; listed as Homo sapiens) [compound 466]
6,″++″ (≥20% = ++),63 (YLLPSGGSVTL; listed as Homo sapiens) [compound 63]
7,″++++″ (≥75% = ++++),100 (YLLSTNAQL; listed as Homo sapiens) [compound 100]
8,″+++″ (≥50% = +++),346 (LLDSKVPSV; listed as Homo sapiens) [compound 346]
9,″+++″ (≥50% = +++),142 (FLFATPVFI; listed as Homo sapiens) [compound 142]
10,″++++″ (≥75% = ++++),621 (VLMDRLPSLL; listed as Homo sapiens) [compound 621]
11,″+++″ (≥50% = +++),42 (VLLQKIVSA; listed as Homo sapiens) [compound 42]
12,″+″ (≥10% = +),520 (LAVHPSGVAL; listed as Homo sapiens) [compound 520]
13,″+++″ (≥50% = +++),301 (FLVEDLVDSL; listed as Homo sapiens) [compound 301]
14,″+++″ (≥50% = +++),223 (ALLENIALYL; listed as Homo sapiens) [compound 223]
15,″+++″ (≥50% = +++),76 (ILIDSIYKV; listed as Homo sapiens) [compound 76]
16,″+++″ (≥50% = +++),20 (RMIEYFIDV; listed as Homo sapiens) [compound 20]
17,″+++″ (≥50% = +++),238 (YLISFQTHI; listed as Homo sapiens) [compound 238]
18,″+++″ (≥50% = +++),282 (LLADVVPTT; listed as Homo sapiens) [compound 282]
19,″+++″ (≥50% = +++),287 (FLNEFFLNV; listed as Homo sapiens) [compound 287]
20,″+++″ (≥50% = +++),561 (YLQLTQSEL; listed as Homo sapiens) [compound 561]
21,″+++″ (≥50% = +++),391 (YVYPQRLNFV; listed as Homo sapiens) [compound 391]
22,″+++″ (≥50% = +++),73 (NIFDLQIYV; listed as Homo sapiens) [compound 73]
23,″++″ (≥20% = ++),548 (ALWENPESGEL; listed as Homo sapiens) [compound 548]
24,″++″ (≥20% = ++),44 (ILDPISSGFLL; listed as Homo sapiens) [compound 44]

row,Peptide exchange,Substance
1,″+++″ (≥50% = +++),252 (LLIGTDVSL; listed as Homo sapiens) [compound 252]
2,″+++″ (≥50% = +++),23 (VLLDDIFAQL; listed as Homo sapiens) [compound 23]
3,″+++″ (≥50% = +++),467 (FLAKDFNFL; listed as Homo sapiens) [compound 467]
4,″+++″ (≥50% = +++),477 (ALLPASGQIAL; listed as Homo sapiens) [compound 477]
5,″++″ (≥20% = ++),114 (SLVGEPILQNV; listed as Homo sapiens) [compound 114]
6,″+++″ (≥50% = +++),29 (KMLGIPISNILMV; listed as Homo sapiens) [compound 29]
7,″++++″ (≥75% = ++++),339 (GLWEIENNPTVKA; listed as Homo sapiens) [compound 339]
8,″++″ (≥20% = ++),461 (VMFRTPLASV; listed as Homo sapiens) [compound 461]
9,″+++″ (≥50% = +++),474 (YLDPALELGPRNV; listed as Homo sapiens) [compound 474]
10,″+++″ (≥50% = +++),430 (HLYSSIEHLTT; listed as Homo sapiens) [compound 430]
11,″+++″ (≥50% = +++),66 (FLDENIGGVAV; listed as Homo sapiens) [compound 66]
12,″+++″ (≥50% = +++),595 (VLLSIYPRV; listed as Homo sapiens) [compound 595]
13,″++″ (≥20% = ++),579 (NLMEMVAQL; listed as Homo sapiens) [compound 579]
14,″+++″ (≥50% = +++),518 (KLNAEVACV; listed as Homo sapiens) [compound 518]
15,″+++″ (≥50% = +++),600 (ALAAPDIVPAL; listed as Homo sapiens) [compound 600]
16,″+++″ (≥50% = +++),610 (LLAPTPYIIGV; listed as Homo sapiens) [compound 610]
17,″+++″ (≥50% = +++),546 (VMIAGKVAVV; listed as Homo sapiens) [compound 546]
18,″++++″ (≥75% = ++++),349 (SLTEYLQNV; listed as Homo sapiens) [compound 349]
19,″+++″ (≥50% = +++),361 (ALYELEGTTV; listed as Homo sapiens) [compound 361]
20,″++″ (≥20% = ++),333 (FLPDANSSV; listed as Homo sapiens) [compound 333]
21,″++″ (≥20% = ++),275 (YLVYILNEL; listed as Homo sapiens) [compound 275]
22,″+++″ (≥50% = +++),297 (VLADIELAQA; listed as Homo sapiens) [compound 297]
23,″+++″ (≥50% = +++),589 (KLYPQLPAEI; listed as Homo sapiens) [compound 589]
24,″++″ (≥20% = ++),379 (IMEGTLTRV; listed as Homo sapiens) [compound 379]

row,Peptide exchange,Substance
1,″+++″ (≥50% = +++),442 (GLLGGGGVLGV; listed as Homo sapiens) [compound 442]
2,″++″ (≥20% = ++),459 (ALITEVVRL; listed as Homo sapiens) [compound 459]
3,″++″ (≥20% = ++),172 (VLYSYTIITV; listed as Homo sapiens) [compound 172]
4,″++″ (≥20% = ++),270 (LLLDEEGTFSL; listed as Homo sapiens) [compound 270]
5,″++″ (≥20% = ++),212 (ALWDQDNLSV; listed as Homo sapiens) [compound 212]
6,″+++″ (≥50% = +++),45 (SLWQDIPDV; listed as Homo sapiens) [compound 45]
7,″+++″ (≥50% = +++),254 (TLLAFIMEL; listed as Homo sapiens) [compound 254]
8,″+++″ (≥50% = +++),123 (NLWDLTDASVV; listed as Homo sapiens) [compound 123]
9,″+++″ (≥50% = +++),607 (RLYSGISGLEL; listed as Homo sapiens) [compound 607]
10,″+++″ (≥50% = +++),364 (LLQNEQFEL; listed as Homo sapiens) [compound 364]
11,″+++″ (≥50% = +++),215 (QLINHLHAV; listed as Homo sapiens) [compound 215]
12,″++″ (≥20% = ++),233 (VLSETLYEL; listed as Homo sapiens) [compound 233]
13,″+++″ (≥50% = +++),135 (ALSEVDFQL; listed as Homo sapiens) [compound 135]
14,″++″ (≥20% = ++),447 (QLVPALAKV; listed as Homo sapiens) [compound 447]
15,″+++″ (≥50% = +++),558 (GLLENIPRV; listed as Homo sapiens) [compound 558]
16,″+++″ (≥50% = +++),475 (LLLNEEALAQI; listed as Homo sapiens) [compound 475]
17,″++″ (≥20% = ++),21 (VLDELDMEL; listed as Homo sapiens) [compound 21]
18,″+++″ (≥50% = +++),335 (YSLSSVVTV; listed as Homo sapiens) [compound 335]
19,″++++″ (≥75% = ++++),104 (STMEQNFLL; listed as Homo sapiens) [compound 104]
20,″+++″ (≥50% = +++),521 (MLLTKLPTI; listed as Homo sapiens) [compound 521]
21,″++″ (≥20% = ++),128 (YLFDDPLSAV; listed as Homo sapiens) [compound 128]
22,″+++″ (≥50% = +++),216 (NLWEDPYYL; listed as Homo sapiens) [compound 216]
23,″++″ (≥20% = ++),131 (FVPPVTVFPSL; listed as Homo sapiens) [compound 131]
